Experimental data taken from paper PMC5207208 (Science (New York, N.Y.), 2016).

Legend:
Nup192 = Nup192 (Chaetomium thermophilum, UniProt G0S4T0 1-1756); assay: SEC-MALS
Nup188 = Nup188 (Chaetomium thermophilum, UniProt G0SFH5 1-1858); assay: SEC-MALS
Sequence of Nup188 (G0SFH5 whole entry): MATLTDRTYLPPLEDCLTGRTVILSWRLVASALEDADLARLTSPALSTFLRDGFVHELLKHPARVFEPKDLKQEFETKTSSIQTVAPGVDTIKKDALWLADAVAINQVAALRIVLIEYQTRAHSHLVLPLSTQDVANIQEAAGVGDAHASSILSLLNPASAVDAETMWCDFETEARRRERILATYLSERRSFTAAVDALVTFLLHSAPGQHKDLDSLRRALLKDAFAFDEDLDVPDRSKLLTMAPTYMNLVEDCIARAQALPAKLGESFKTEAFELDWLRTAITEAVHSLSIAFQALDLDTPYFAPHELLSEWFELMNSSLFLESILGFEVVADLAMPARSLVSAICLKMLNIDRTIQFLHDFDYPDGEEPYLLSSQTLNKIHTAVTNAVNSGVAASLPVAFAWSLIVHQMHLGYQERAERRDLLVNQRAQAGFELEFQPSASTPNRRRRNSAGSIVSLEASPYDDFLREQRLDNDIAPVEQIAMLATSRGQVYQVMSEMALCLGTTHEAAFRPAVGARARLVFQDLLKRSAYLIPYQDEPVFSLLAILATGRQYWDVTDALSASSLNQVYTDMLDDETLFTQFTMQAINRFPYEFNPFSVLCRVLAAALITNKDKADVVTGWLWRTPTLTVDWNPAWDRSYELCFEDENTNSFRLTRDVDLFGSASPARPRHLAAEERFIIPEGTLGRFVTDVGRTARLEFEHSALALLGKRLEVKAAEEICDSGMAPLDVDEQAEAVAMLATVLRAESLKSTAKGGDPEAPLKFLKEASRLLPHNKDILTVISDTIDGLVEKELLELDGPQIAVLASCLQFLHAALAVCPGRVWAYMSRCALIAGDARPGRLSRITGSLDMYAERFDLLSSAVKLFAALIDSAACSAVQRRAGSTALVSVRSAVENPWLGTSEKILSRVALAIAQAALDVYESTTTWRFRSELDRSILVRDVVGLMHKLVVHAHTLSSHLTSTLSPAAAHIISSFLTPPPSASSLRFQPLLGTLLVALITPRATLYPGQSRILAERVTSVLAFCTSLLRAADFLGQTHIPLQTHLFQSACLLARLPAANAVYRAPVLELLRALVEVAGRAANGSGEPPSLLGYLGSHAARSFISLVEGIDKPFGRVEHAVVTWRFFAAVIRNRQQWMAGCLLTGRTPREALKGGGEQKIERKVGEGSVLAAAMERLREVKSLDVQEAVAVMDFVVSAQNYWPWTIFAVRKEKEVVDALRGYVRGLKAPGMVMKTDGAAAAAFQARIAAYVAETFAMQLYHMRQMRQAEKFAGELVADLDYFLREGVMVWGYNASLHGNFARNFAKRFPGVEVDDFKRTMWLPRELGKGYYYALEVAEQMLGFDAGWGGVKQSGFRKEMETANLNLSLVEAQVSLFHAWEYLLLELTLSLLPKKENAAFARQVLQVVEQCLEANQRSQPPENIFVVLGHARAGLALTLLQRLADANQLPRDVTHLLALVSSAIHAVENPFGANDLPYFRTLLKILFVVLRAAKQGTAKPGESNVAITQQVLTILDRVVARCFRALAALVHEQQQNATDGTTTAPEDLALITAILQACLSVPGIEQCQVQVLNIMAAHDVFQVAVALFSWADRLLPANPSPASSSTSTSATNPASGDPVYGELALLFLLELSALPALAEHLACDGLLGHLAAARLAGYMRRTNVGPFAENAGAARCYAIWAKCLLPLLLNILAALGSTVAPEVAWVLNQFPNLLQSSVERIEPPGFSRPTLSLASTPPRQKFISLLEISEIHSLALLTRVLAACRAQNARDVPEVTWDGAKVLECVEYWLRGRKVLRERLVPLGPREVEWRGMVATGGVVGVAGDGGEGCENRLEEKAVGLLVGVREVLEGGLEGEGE

Sequence of Nup192 (G0S4T0 whole entry): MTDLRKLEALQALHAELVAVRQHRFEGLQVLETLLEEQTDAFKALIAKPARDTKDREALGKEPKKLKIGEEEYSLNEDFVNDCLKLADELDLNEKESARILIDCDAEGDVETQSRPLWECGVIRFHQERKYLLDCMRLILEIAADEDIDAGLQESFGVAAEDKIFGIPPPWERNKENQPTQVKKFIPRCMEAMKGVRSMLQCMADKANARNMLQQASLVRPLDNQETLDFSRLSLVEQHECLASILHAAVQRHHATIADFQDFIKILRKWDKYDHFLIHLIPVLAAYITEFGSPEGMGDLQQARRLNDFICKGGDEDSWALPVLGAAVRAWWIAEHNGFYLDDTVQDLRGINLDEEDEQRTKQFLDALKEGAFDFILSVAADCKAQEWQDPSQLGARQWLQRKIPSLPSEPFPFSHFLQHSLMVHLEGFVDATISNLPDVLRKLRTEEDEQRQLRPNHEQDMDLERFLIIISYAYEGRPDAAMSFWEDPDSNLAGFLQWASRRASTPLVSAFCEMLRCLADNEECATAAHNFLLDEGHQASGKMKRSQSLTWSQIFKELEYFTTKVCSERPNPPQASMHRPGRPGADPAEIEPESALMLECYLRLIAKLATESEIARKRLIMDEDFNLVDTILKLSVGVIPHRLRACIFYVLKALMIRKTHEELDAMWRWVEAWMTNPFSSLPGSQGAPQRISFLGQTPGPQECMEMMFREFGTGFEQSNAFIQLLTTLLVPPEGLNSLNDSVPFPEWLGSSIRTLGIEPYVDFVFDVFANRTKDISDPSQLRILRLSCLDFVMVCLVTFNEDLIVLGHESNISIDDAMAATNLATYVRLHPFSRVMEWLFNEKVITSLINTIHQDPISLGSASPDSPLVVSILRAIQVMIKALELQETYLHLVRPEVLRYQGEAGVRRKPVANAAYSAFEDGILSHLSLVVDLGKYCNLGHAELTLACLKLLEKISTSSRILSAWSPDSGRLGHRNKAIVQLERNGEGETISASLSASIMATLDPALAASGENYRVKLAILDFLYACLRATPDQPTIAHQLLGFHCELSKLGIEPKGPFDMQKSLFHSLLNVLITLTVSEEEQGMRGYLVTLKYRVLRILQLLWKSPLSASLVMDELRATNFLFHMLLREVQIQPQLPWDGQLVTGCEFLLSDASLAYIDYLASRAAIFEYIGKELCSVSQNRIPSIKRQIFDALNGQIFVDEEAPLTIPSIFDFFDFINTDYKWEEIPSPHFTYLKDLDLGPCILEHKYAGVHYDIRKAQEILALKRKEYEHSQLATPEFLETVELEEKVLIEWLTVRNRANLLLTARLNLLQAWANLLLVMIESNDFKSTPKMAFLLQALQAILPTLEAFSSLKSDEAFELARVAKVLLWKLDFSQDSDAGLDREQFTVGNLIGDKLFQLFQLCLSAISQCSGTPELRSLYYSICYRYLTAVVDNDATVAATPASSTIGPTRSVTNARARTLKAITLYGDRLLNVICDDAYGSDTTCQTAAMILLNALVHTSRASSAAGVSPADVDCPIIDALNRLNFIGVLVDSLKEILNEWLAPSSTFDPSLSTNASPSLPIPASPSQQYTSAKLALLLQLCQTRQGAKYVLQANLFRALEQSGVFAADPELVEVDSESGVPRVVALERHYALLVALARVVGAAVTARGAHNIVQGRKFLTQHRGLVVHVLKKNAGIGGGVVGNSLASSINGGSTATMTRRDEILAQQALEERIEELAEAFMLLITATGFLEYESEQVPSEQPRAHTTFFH

| binding result (Nup192) | binding result (Nup188) | Binder |
| --- | --- | --- |
| binds |  | EWEAQRKRIYQHFGIK (peptide, UniProt G0S024 286-301, looked up) [Nic96 fragment (residues 286–301)] |
| binds |  | Nup145N fragment (residues 606–683) (domain or fragment, Chaetomium thermophilum, UniProt G0SAK3 606-683, looked up) DDKIQNPGPLATPLSGKAKVKSRSILPMYKLSPANASRLVTTPQKRAYGFSFSAYGSPTSPSSSASSTPGAFGQSILS |
|  | binds | DFDAFLEENVTLEWEAQRKRIYQHFGIK (peptide, UniProt G0S024 274-301, looked up) [Nic96 fragment (residues 274–301)] |
|  | binds | Nup145N fragment (residues 606–750) (domain or fragment, Chaetomium thermophilum, UniProt G0SAK3 606-750, looked up) DDKIQNPGPLATPLSGKAKVKSRSILPMYKLSPANASRLVTTPQKRAYGFSFSAYGSPTSPSSSASSTPGAFGQSILSSSINRGLNKSISASNLRRSLNVEDSILQPGAFSANSSMRLLGGPGSHKKLVINKDMRTDLFSPPNKD |
